Assay results published in the supplement of paper PMC9170038.

System: MS2 coat protein
Test: apparent KD of MS2 coat protein; designed switch direction (-1 OFF switch, 1 ON switch): -1; higher = weaker reporter binding
Summary of the method: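 SNAP-549-labelled MS2 coat protein was titrated, doubling from 0.7 or 1.5 nM to 3 µM, over designed RNA switches transcribed on Illumina chips by stalled E. coli RNA polymerase. Runs were done without input, with 200 uM small-molecule ligand, or with an oligonucleotide input. Apparent KD is the per-design median over clusters of curve-fitted normalised fluorescence.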

[1] = Eterna round: R95, input ligand: FMN 200 uM
[2] = Eterna round: R95, input ligand: microRNA oligo, concentration not stated
[3] = Eterna round: R95, input ligand: none
[4] = input ligand: microRNA oligo, concentration not stated

Sequence | apparent KD of MS2 coat protein [2] [nM] | apparent KD of MS2 coat protein (input ligand: FMN 200 uM) [nM] | apparent KD of MS2 coat protein (input ligand: none) [nM] | also measured
GCACGGUAAGUGAGGAUAUACCUCUGGAUACAGAGGUAGAAGGCACAUGAGGAUCACCCAUGUCUAUACCGUGC [Fiskers BMX 4 - 81] (puzzle: Brourd's mod of Exclusion 4) | 13.6 |  |  | apparent KD of MS2 coat protein [1]: 20.3 nM; apparent KD of MS2 coat protein [3]: 13.8 nM
GCGAAAGCAACAAGUGAAAACAUGAGGAUCACCCAUGUCCUCAUUUGCUCGUCUUAUAAGCUAUGCGAAAGCAUAGC [Sensor 3, v1 - 10] (puzzle: Sensor v3, turn-off variant 1) | 511 |  |  | apparent KD of MS2 coat protein [1]: 52.4 nM; apparent KD of MS2 coat protein [3]: 74.4 nM
ACUUAUAGAGGAUAUACAGUUAAUUACAUGAGGAUCACCCAUGUUCUUCAAUGUAUAUAAGUAGAAGGCUAAAGGA [Mat - Exclusion 5 - Eli Mod - D6] (Eterna round: R97, puzzle: Exclusion 5) |  | 198 | 19.3 | 
CGUCGAAAUGUAGGAUAUCUGCACGUUUAGUGCAGAGAAGGACAUGAGGAUCACCCAUGUAGAUCACGACGAAUUAAUUUAAUU [ENG1/5-C2] (Eterna round: R96, puzzle: Exclusion NG 1) |  | 374 | 65.8 | apparent KD of MS2 coat protein [4]: 47.3 nM
AGAAAUGCCCAUGGCCGCAAGCUUUUCGCUUGUCUUACCACAUGAGGAUCACCCAUGUGACAUGGGCUCCUUAUAAU [Usdigeor] (puzzle: Sensor v3, turn-off variant 2) |  |  |  | apparent KD of MS2 coat protein [1]: 12.3 nM; apparent KD of MS2 coat protein [3]: 12 nM
AGAUUACUGCGAGGAUAUACAUGAGGAUCACCCAUGUGGUGGUGUGAGGCAAAGCCUCACACCAUGUAGAAGGCGCAGUAAUCA [Mat - Exclusion NG 2 - Mod of JL - D22] (Eterna round: R96, puzzle: Exclusion NG 2) |  | 150 | 44.5 | apparent KD of MS2 coat protein [4]: 23.3 nM
GAAAAUAGUGAGGAUAUAUCACGGAUACCCGAGAUAGAAGGCACUACAUGAGGAUCACCCAUGUUCGGGUGUCC [Areleon] (Eterna round: R97, puzzle: Exclusion 6) |  | 107 | 79.3 | 
AGAGUGUGAGGAUAUAUGGUGCAGAUGAAGGGAUAGAAGGAGUAGAAGGUACAUGAGGAUCACCCAUGUUAGGA [JR_Exclu4_Sub077] (puzzle: Exclusion 4) | 25.5 |  |  | 
AGAUCGUCAGGAUAUACAUGAGGAUCACCCAUGUAUAGUCUAAAUUUGACUAUAAGAUGUAGAAGGGACGAUCG [Exclusion 3 (MOD5 of #1 Marzena11)] (Eterna round: R97, puzzle: Exclusion 3) |  | 75.8 | 21.4 | 
GCUGGUCGAGGAUAUAUAUGACGUGCUUCGGCACGAAGGUCACAUGAGGAUCACCCAUGUAGAAGGUGACCAGC [E2/9-B1] (Eterna round: R97, puzzle: Exclusion 2) |  | 110 | 42 | 
GCAUGGAAAGUGAGGAUAUACCACUGGAUACAGUGGUAGAAGGCACAUGAGGAUCACCCAUGUUCCUACCAUGC [Fiskers BMX 4 - 39] (puzzle: Brourd's mod of Exclusion 4) | 15 |  |  | 
CAGUACUGAGGAUAUACAUGAGGAUCACCCAUGUGGUUUAGUGCACGCGUACGUGUACGUAGAAGGCAGUACUG [JL 3.27 m8] (Eterna round: R97, puzzle: Exclusion 3) |  | 78.3 | 18.9 | 
CAUGUCUGAGGAUAUCGUUAUUUGUACAUGAGGAUCACCCAUGUCCUAUUUAUUAUAUUUCGAGAAGGCAGUGUAU [JR_E5_Sub093] (puzzle: Exclusion 5) | 15.6 |  |  | 
AUCUGUGAGCGAGGAUAUCUGCUGUUGUCGGUCGGAGAAGGCGCGGACAGAACAUGAGGAUCACCCAUGUGUAUGGGCGGCCUC [Isvetima] (Eterna round: R96, puzzle: Exclusion NG 1) |  | 256 | 99.6 | apparent KD of MS2 coat protein [4]: 14.1 nM
UUUCAACAUGAGGAUCACCCAUGUCAGGAUAUCAUUUAGCUCAUACACUUACCAUCAUUGAGAAGGGACAUGCU [Colors] (Eterna round: R97, puzzle: Exclusion 1) |  | 15.7 | 19 | 
GUUCGACAUGAGGAUCACCCAUGUGAGGAUAUACGAUUAGCUGCUAGGUAGUUAGUAUGUAGAAGGUGCGUGUA [EX1 #71] (Eterna round: R97, puzzle: Exclusion 1) |  | 36 | 34.3 | 
CGCCUGUUAGGAUAUUAGUAGUAGUCAGAAUAGACUAUUACUGAGAAGGAACAUGAGGAUCACCCAUGUUGGCG [Eli x4 4.13] (Eterna round: R97, puzzle: Exclusion 4) |  | 19.9 | 15.5 | 
CUGAACCCGGUAGGAUAUAUUGUGGGCGGGCGUGGAACGACAUGAGGAUCACCCAUGUAAUUGAGGUAGAAGGGCCGAGAGAUU [Excl-NG2-LRO15] (Eterna round: R96, puzzle: Exclusion NG 2) |  | 37.9 | 46.4 | apparent KD of MS2 coat protein [4]: 23 nM
CCGGAAAUAGAGGAUAUAGGAGUCGAUAGACUCCUAGAAGGCUAUACAUGAGGAUCACCCAUGUGUCCUACCGG [Fiskers Ex 6 - 65] (puzzle: Exclusion 6) | 16.6 |  |  | 
GGAGGAGAGUUAGGAUAUACAAGAAGAAUGUGAGUAGAAGGAACGGAACAUGAGGAUCACCCAUGUCCCAUGUGGAGGAGGAGG [Kawasakiqro] (Eterna round: R96, puzzle: Exclusion NG 1) |  | 46.2 | 30.9 | apparent KD of MS2 coat protein [4]: 25.3 nM
GUGUAGCAAGGAUAUACAUGAGGAUCACCCAUGUGAAUAAGAUAGAAUAAGAUAAAGUGUAGAAGGUGCAGUGU [Excluse me!!! 8 - Jieux - Exclusion 3] (puzzle: Exclusion 3) | 36.6 |  |  | 
GUCAUGUUAGGAUAUCAAACAUGUGACUUCGGUCACUGUCCUGAGAAGGAACAUGAGGAUCACCCAUGUUGGAC [Ex4-3: 57] (puzzle: Exclusion 4) | 16.2 |  |  | 
UUGCAGUCGUCAGGAUAUAGUAUUACGGCCUUUCAUUUCUUCAUACAUGAGGAUCACCCAUGUCGCUAGAAGGGCUUAUCGCUU [salish99_ExNG2_r04_108] (Eterna round: R96, puzzle: Exclusion NG 2) |  |  |  | apparent KD of MS2 coat protein [4]: 11.1 nM
AAUACUAACACGAAAGUGUUAGUAAAAUAAGCUUGUGGUACAUGAGGAUCACCCAUGUCCUCAUAAGCUCGUCUUAU [Mat - Sensor v3 - Turn-off var 2 - D43] (puzzle: Sensor v3, turn-off variant 2) | 75.4 |  |  | apparent KD of MS2 coat protein [1]: 23 nM; apparent KD of MS2 coat protein [3]: 21.4 nM
ACAUGACUAGGAUAUACAUGAGGAUCACCCAUGUGACCACAAACAUGCUAUAUGGGCAGUAGAAGGAGUUGGAA [Eternabot (L1) Solution 86] (Eterna round: R97, puzzle: Exclusion 3) |  | 82.9 | 75.9 | 
UCAUACGGUGAGGAUAUCUCCGCUAAAGUGUGUAGAGAAGGCGCUACAUGAGGAUCACCCAUGUUUGUGGGCAG [Ex-6 Malc#11] (puzzle: Exclusion 6) | 421 |  |  | 
